Source: the nanobody polyreactivity screen of Harvey et al. (2022)

Assay: yeast display, Sf9 membrane polyspecificity reagent, FACS + sequencing; frameworks hold sequencing errors
How it was run: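 After 36–48 hours of galactose induction, yeast (Saccharomyces cerevisiae BJ5465) displaying a synthetic nanobody library were stained at 4 °C for 1 hour with 10% biotinylated, detergent-solubilized Sf9 membrane reagent. Streptavidin microbeads enriched the stained cells before FACS sorting into low and high (top ~1%) gates on anti-HA and streptavidin fluorescence. Each clone's polyreactivity label reflects its gate of origin.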

Sequence | polyreactivity (PSR sort gate)
QVQLVESGGGLVQAGGRLRLSCAASGSNFGLNALGWYRQAPGKERELVAAINSDADTYYADSVKGRFTISRDNAKNTVYLQMNSQKPADTAVYYCAADYYWDPFDSNFGHVPQEYESWGQGTQVTVSS | low polyreactivity
QVQLVESGGGLVQAGGSLRLSCAASGRIFRWYAMGWYRQAPGKERELVAAISSRGGSTYYADSVKGRFTISRDNAKNTVYLQMNSLKPEDTAVYYCAADTSGWQPRYDYWGQGTQVTVSS | high polyreactivity
QVQLVESGGGLFQAGGSLRLSCAASGRTFISNPMGWYRQAPGKVWEMVASITSGGSTNYADSVKGRFTISRDNAKNSVYVHMYSQNREDTAVYYCAAEGLVVGWTEEDYWGQGTQVTVSS | low polyreactivity
QVQLVESGGGLVQAGGSLRLSCAASGRTFSRYAMGWYRQAPGKEREFVAAITWSSGGTYYADSVKGRFTISRDNAKNTVYLQMNSLKPEDTAVYYCNYLRSRYYQDYNYWGQGTQVTVSS | high polyreactivity
QVQLEESGGGLVQAGGSLRLSCAASGFTFRRYAMGWYRQAPGKERELVAAITRSGSSTYYADSVKGRFTISRDNAKNTVYLQMNSLKPEDTAVYYCARYHLRPTDGFDYWGQGTQVTVSS | high polyreactivity
QVQLVESGGGLVQAGGSLRLSCAASGSIFVRYAMGWYRQAPGKERELVASIRSRGDSTYYADSVKGRFTISRDNAKNTVYLQMNSLKPEDTAVYYCAGRRYPPRMDYWGQGTQVTVSS | high polyreactivity
QVQLEESGGGLVQAGGSLRLSCAASGSTFINNAMGWYRQPPGKERELVAAISSGGSTYYADSVKGRFTISRDNAKNTVYLEMNSLKPEDTAVYYCAAEFVETKYPEMDYWGQGTQVTVSS | low polyreactivity
QVQLVESGGGLVQAGGSLRLSCAASGFTFYGNAMGSSRQAPGKEREWVAAITSTGNTYYADSVTGRFTISRDNAKNTVYLQMNSLKPEDTAVYYCARRGDILYDYWGQGTQVTVSS | low polyreactivity
QLQLVESGGGLVQAGGSLRLSCAASGSIFRGYAMGWYRQAPGKERELVAAISWSGGRTYYADSVKGRFTISRDYAKNTVYLQMNSLKPEDTSVFYCNAASLRYSYTLFDCWGQGTQVTVSS | high polyreactivity
QVQLVESGGGLVQAGGSLRLSCAASGFTFRGYTMGWYRQAPGKERELVAAITRSGTTTYYADSVKGRFTISRDNAKNTVYLQMNSLKPEDTAVYYCATAKFYRQYGYWGQGTQVTVSS | high polyreactivity
QVKLVESGGGKVQAGGSLRLSCAASGYTFDPNAIGWYRQEPGKERELVAAISRIGGSTYYADSVKGRFTISRDNAKTTLYVQMNSLKPEDTAVYYCAVDWYLTGHWADDYWGQGTQVTVSS | low polyreactivity
QVQLVESVGGLVQAGGSLRLSCAASGSTFYANAMGWYRQAPGKERELVAAITWGDASTYYADSVKGRFTISRDNAKNTVYLQMNSLKPEDTAVYYCAVDESYGSSSDMDYWGQGTQVTVSS | low polyreactivity
QVQLVESGGGLVQAGGSLRLSCAASGSILGGNAMGWYRKAPGKERELVAAITFSGGGTYYADSVKGRFTISRDNAKNTVYLHMNSLKPEDTAVYYCAADKDGYTYEFDYWGQGTQGTVSS | low polyreactivity
QVQLVESGGGLVQAGGSLRLSCAASGSTFLPNAMGWYRQAPGKERELVARISYSGGNTYYADSVKGRFTISRDNAKNTVYLQMNSLKPEDTAVYYCAAVGWYHDYYWGQGTQVTVSS | high polyreactivity
QVQLVESGGGLVQAGGSLRLSCAASGSTFSSYAMGWYIQAPGKERELVAAITSSGGTTYYSDSVKGRFTISRDNAKNTVYLQMNSLKPEDTAVYYCAAADVIFWLYYYWGQGTQVTVSS | low polyreactivity
QVQLLESGGGLVQAGGSLRLSCAASGFTFKRNAKGWYRQAPGKEREFVAAITSSGGSTYYADSVKGRFTISRDNAKNTVYLQMNSLKPEDTAVYYCAARSKGAYPTRPLPGGYGYWGQGTQVTVSS | high polyreactivity

Sequence | polyreactivity (PSR sort gate)
QVQLVESGGGLVQAGGSLRLSCAASGFTFFENAMGWYRQAPGKERELVAAIRKSGDRTYYADSVKGRFTISRDNAKNTVYLQMNSLKPEDTAVYYCAAPLSLRSSFGSWGQGTQVTVSS | high polyreactivity
QVQLVESGGGLVQAGGSLRLSCAASVSTVSYNAMGWYRQAPGKERELVAAISGSGGTTYYADSVKGRFTISRDNAKNTVYLQMNSLKPEDTAVYYCAARPFRSWRYDYWGQGTQVTVSS | low polyreactivity
QVQLVESGGGLVQAGGSLRLSCAASGSIFNIYDMGWSRQAPGKERELVAGISWDGDSTYYADSVKGRFTISRDNAKNTVYLQMNSLKPEDTAVEYCAAVYTRAHISYYYWGQGTQVTVSS | high polyreactivity
QVQLVESGGGLFQAGVSLRLSCAASGLIFYGNAMGWYRQAPGKERELVAAITGGGGNTYYADSVKGRFTISRYYAKITVYLQMNSLKPEDTAVYYCATATSTAYVRYYYWGQGTQVTVSS | high polyreactivity
QVQLQGSGGGLVQAGGSLRLSCAASGYIFQNVPMGWNRQAPGKERELVAGIDNGTSTNYADSVNGRFTISRDNAKKTVYLQMNSLKPEDTAVYYCAAAGQADNTLGYWGQGTQVTVSS | low polyreactivity
QVQLVESGGGLVQAGGSLRLSCAASGNTFKVYVMGWYRQAPGKERELVAAISRRGGNTYYADSVKGRFTISRDNAKNTVYLQMNSLKPEDTAVYYCAAYRAPYYEYDYWGQGTQVTVSS | high polyreactivity
QFQLVESGGGLVQAGGSLRLSCAASGRTFGFNAMGWYIQAPGKERELVAAISGSGGRTYYADSVKGRFTISRDKPKNTVYLQMNSLKPEDTAVYYCAAGARRGGSGYLGQGTQVTVSS | high polyreactivity
QVQLVESGGGLVQAGGSLRLSCAASGSTFVYYAMGWYRQAPGKERELVAAIRYSGASTYYADSVKGRFTISRDNAKNTVYLQMNSLKPEDTAVYYCAASSRTFGYKYYYWGQGTQVTVSS | high polyreactivity
QVQLVESGGGLVQAGGSLRLSCAASGRIYWNTMGWYIQAPGKERELVASISTGGGRTYYADSVKGRFTISRDNAKNTVYLQMNSLKPEDTAVYYCAVRSYGHGFDYWGQGTQVTVSS | high polyreactivity
QVQLVESGGGLVQAGGSLRLSCAASGITFKSYAMGWYRQAPGKERELVAAISRRGGSTYYADSVKGRFTISRDNAKNTVYLQMNSLKPEDTAVYYCAADSGREPKGPSRLTYWGQGTQVTVSS | high polyreactivity
QVQLVESGGGLVQAGGSLRLICAASGRIFLRNDMGWYRQAPGKERELVAGISSDGSTYYADSVNGRFTISRDNAKNTVYLQMNSLKPEDTAVYYCAAERWGNPTDYQFWRPYDYWGQGTQVTVSS | low polyreactivity
QVQLVESGGGLVQAGGSLRLSCAASGFTFPYYAVGWYRQAPGKERELVAAISKGGTRTYYADSVKGRFTISRDNAKNTVYLQMNSLKPEDTAVYYCAATRIYQEMDYWGQGTQVTVSS | high polyreactivity
QGQLVESGGGLVQAGGSLRLSCAASGRTFYRNAMGWYRQAPGKEREFVAAITSIGGATYYADSVKGRFTISRDNAKNTVDLQMNSLKPEDTAVYYCAAKGFRYPEYDYWGQGTQVTVSS | low polyreactivity
QVQLVESGGGLVPAGGSLRLSCAASGFIFVTNGMGWYRQAPGKERELVAAITDNGGSTYYADSGKGRFTISRDNAKNTVYLQMNSLKPEDTAVYYCNADRVVGPYDGYDYWGQGTQVTVSS | low polyreactivity
QVQLVESGGGLVQAGGSLRLSCAASGSIFGTYTMGWYRQAPGKERELVAAISRSGTSTYYADSVKGRFTISRDNAKNTVYLQMNSLKPEDTAVYYCAASPDPYWRRMDYWGQGTQVTVSS | high polyreactivity
QVQLVESGGGLVQAGGSLRLSCAASGSTLDTYAMGWYRQAPGKERELVAGITWSGGSTYYADSVKGRFTISRDNAKNTVYLQMNSLKPEDTAVYYCAAYSPYGPRYDYWGQGTQVTVSS | low polyreactivity
